± gives the standard deviation.
Test: protein stability index of a GFP-peptide fusion (GPS, HEK-293T) (PSI 1-6); higher = more stable
[1] = treatment: DMSO, c terminus: a fixed tail appended
[2] = treatment: MLN4924 1 uM, 8 h, c terminus: a fixed tail appended
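Also: 24-mer peptide tiles fused after GFP, lentivirally expressed, FACS-sorted into six equal bins by GFP/DsRed ratio, decoded by Illumina sequencing, PSI is the read-weighted mean bin number.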

Sequence	protein stability index [1]	protein stability index [2]	protein stability index (treatment: DMSO, c terminus: native)	protein stability index (treatment: MLN4924 1 uM, 8 h, c terminus: native)
LGLFTLILTEPAQAQKCYRDLALV [INTS3]	3.14 ± 0.36	2.79 ± 0.35		
AAFGHVQRAEMLPKTSGTRATSLG [CPOX]	3.82 ± 0.18	3.91 ± 0.077		
RCLHMFLQDEIIDKSYTPSKIRHA [SNX3]	2.05 ± 0.58	1.92 ± 0.52		
SLKQALKGLSVEFALLADKAAQQG [SNX8]	2.32 ± 0.18	2.52 ± 0.31		
LCSPGHERRGTPADTEEPTKDPDV [PSD2]	5.66 ± 0.19	5.43 ± 0.26		
APRGTPDPGLGEGPALWLRSTCVY [PLEKHN1]	2.43 ± 0.24	2.34 ± 0.27		
MSFTTRSTFSTNYRSLGSVQAPSY [KRT18]	2.37 ± 0.29	2.38 ± 0.3		
GHAQDLMDGLPPGDSNQLAWFDTD [CTNNB1]	4.93 ± 0.31	4.7 ± 0.27		
AICGDRATGKHYGASSCDGCKGFF [HNF4A]	2.8 ± 0.24	2.98 ± 0.31		
FPRMLLVDRLPGLQGALDLLAVLC [ZSWIM9]	2.29 ± 0.18	2.25 ± 0.084		
RTMLDFPQHVSSDKEVRAASTEAD [NLN]	5.55 ± 0.23	4.74 ± 1.4		
EYQLYEDIGKGAFSVVRRCVKLCT [CAMK2B]	2.45 ± 0.26	2.25 ± 0.36		
IIALIALSVGQYNCPGQYTFSMPS [CD69]	3.51 ± 0.45	3.3 ± 0.48		
LFEEPEDPSNRSFFSEIISSVSDV [PPP2R2C]	4.24 ± 0.057	4.19 ± 0.19		
TASYPSDGCGADGLRSRVKYGVKT [NOL4L]	3.84 ± 0.24	3.98 ± 0.32		
PEPVYKLTQRQVNITVQKKVSQWW [HACD3]	2.35 ± 0.49	2.51 ± 0.31		
DKRNYPSLELDKMAHGYGEESEEE [CHGB]	5.63 ± 0.37	5.66 ± 0.19		
PMQKLQDLVNRTPWKKCCFSGDGE [RBBP5]	2.84 ± 0.15	2.94 ± 0.071		
SRLWDSRLRHYLGSRYDARRGVSD [DNAAF3]	3.09 ± 0.33	3.23 ± 0.18		
SLGQLPLPPIPHVFSAGTGSAILP [PLAGL1]	2.82 ± 0.28	3.07 ± 0.22		
PQHAADTPKSGEPRVPEEAAQDRP [YJU2B]	5.62 ± 0.26	5.42 ± 0.26		
HDELLAEHIKSLLIKNNSLPRKRQ [INTS3]	5 ± 0.17	4.98 ± 0.2		
AAWQGHLPIVKLLAKQPGVSVNAQ [RIPK4]	2.57 ± 0.38	3.07 ± 0.61		

Sequence	protein stability index [1]	protein stability index [2]	protein stability index (treatment: DMSO, c terminus: native)	protein stability index (treatment: MLN4924 1 uM, 8 h, c terminus: native)
KECPFRVNKVCGAACSSKRSPIID [SERPINB5]	3.02 ± 0.2	3.12 ± 0.38		
MTTLTHRARRTEISKNSEKKMESE [GOLPH3L]	5 ± 0.55	5.07 ± 0.18		
AKKAMGYQPLVTMDDAMERTVQSF [NSDHL]	3.62 ± 0.069	3.46 ± 0.39		
FSPDFTLRNTLKSTSEDSLVKQEC [FAN1]	2.67 ± 0.58	3.43 ± 0.85		
GAIAQSSIYPMEVLKTRMALRKTG [SLC25A25]	3.54 ± 0.11	3.74 ± 0.28		
RIFTSNTHSSVVLQGFDQLRLEGL [KLHL13]	2.42 ± 0.18	2.49 ± 0.27		
GEPLALPLDAGEYCVPRGNRRRFR [BEX1]	4.8 ± 0.27	4.99 ± 0.25		
LNILIQSLDWETFEQYCAWQLFLA [INTS3]	3.04 ± 0.92	2.62 ± 0.12		
SMSSRLSIYDNVPGSILYSSSGDL [DLC1]	3.24 ± 0.089	3.13 ± 0.22		
VPISVTGIAQVKIQGQNKEMLAAA [FLOT1]	3.52 ± 0.27	3.61 ± 0.13		
DSDIPEIPPSSDRTPEILKKALSG [CDS1]	5.2 ± 0.21	5.39 ± 0.19		
FQELAGKELCAMSEEQFRQRSPLG [SPDEF]	3.1 ± 0.42	3.59 ± 0.33		
SGTMGAAKVTGEVLDILTRLPESV [FLOT1]	3.64 ± 0.38	3.71 ± 0.24		
YGVASCEACKAFFKRTIQGSIEYS [ESRRA]	2.34 ± 0.22	2.52 ± 0.072		
IDIVAIIPYFITLGTELAERQGNG [KCNA3]	2.97 ± 0.38	3.29 ± 0.59		
KGMVLDENYNNLANAVISVSGINH [CPN1]	3.06 ± 0.086	3.02 ± 0.29		
LQCAMEENCLSASAAQTDPTTGYR [LOXL2]	3.59 ± 0.23	3.45 ± 0.29		
YVDIHTGLSGSGVAFVCAFSEALA [PYCR3]	2.72 ± 1.2	2.4 ± 1		
CGPQWEMSEWSECTAKCGERSVVT [ADAMTSL2]	2.92 ± 0.42	3 ± 0.52		
SAKTRQRVEDAFYTLVREIRQYRL [KRAS]		2.31 ± 0.4		
ENDPEWWKCKNARGQVGLVPKNYV [NCK2]	3.52 ± 0.16	3.54 ± 0.12		
AFACQVAGCCQVFDALDDYEHHYH [ZNF511]	2.97 ± 0.45	2.74 ± 0.5		
KCMRNGPNALIASLALGDLIYVVI [EDNRA]	3.49 ± 0.4	2.79 ± 0.79		

Sequence	protein stability index [1]	protein stability index [2]	protein stability index (treatment: DMSO, c terminus: native)	protein stability index (treatment: MLN4924 1 uM, 8 h, c terminus: native)
VDPDNVVLCLLAADEDDDRDVALQ [GADD45A]	4.63 ± 0.38	4.77 ± 0.08		
FPDVPLGIFLFCVCVIAIGVVQAL [TMEM175]	2.63 ± 0.62	2.28 ± 1.2		
KEEDHYQRARKEREKEDYLHLKRQ [RHOBTB2]	4.85 ± 0.15	5.01 ± 0.19		
ITMMALKVLGELNILPNTQKVTCF [TENT5D]	2.86 ± 0.59	2.31 ± 0.75		
EDMLWDDLLHGPECRSSVTSDSEG [PHTF1]	5.07 ± 0.3	5.16 ± 0.16		
LLAAGANVHATTATGDTALTYACE [ANKRD17]	4.13 ± 0.2	3.9 ± 0.23		
YAMGITECDNMLMLLSVSQSMSEE [SEPHS2]	2.16 ± 0.31	2.44 ± 0.22		
VTINIQDLLSCSNFAVQHRYLFEE [MATN2]	2.86 ± 0.35	2.87 ± 0.73		
PRVLTLSERPLDFLDLERPPTTPQ [MFF]	4.26 ± 0.19	4.53 ± 0.41		
FLTLEKFTIHNYSHSRERPYKCVQ [PLAGL1]	2.68 ± 0.26	2.13 ± 0.24		
LGNGLLRKKTLVPGPPGSSRPVKG [FKBP8]	3.94 ± 0.12	4.05 ± 0.47		
HCTTVDGQRQLMVPARDGTSCKLT [ADAMTSL2]	4.41 ± 0.2	4.44 ± 0.11		
PSNTGSRTTSVRCRGIPRGPVRPA [NEK8]	3.89 ± 0.089	4 ± 0.17		
SLFKLKPLSNKTATDDTGGKDPRN [PLD5]	4.44 ± 0.54	4.65 ± 0.11		
YFFLYQYCSIHCSDRKQVRNIAN [CSTF3]			3.03 ± 1.1	3.22 ± 0.71
SINQRLNKRERSKLKNLRRKQRRR [RNF180]	3.9 ± 0.14	3.93 ± 0.24		
DIDQMFSTLLGEMDLLTQSLGVDT [APBB1IP]	3.16 ± 0.5	2.76 ± 0.41		
SLLVLIEPVAAGSGIPEVKCYLNG [CLCN6]	1.99 ± 0.92	2.44 ± 0.43		
EGDATRDPGPEPEEEPGVRNGMAS [PSD2]	5.7 ± 0.16	5.38 ± 0.34		
PAFVKFAYVAEREDELSLVKGSRV [NCK2]	3.09 ± 0.34	3.08 ± 0.39		
SKYLLEEWFQNCYARYHQAFADRD [TEKT4]	2.48 ± 0.24	2.15 ± 0.25		
QVTASDSGDPPLSSNVSLSLFVLD [PCDHGA10]	3.31 ± 0.4	3.48 ± 0.29		
SPQSGSILTEETEVKGTLEGDVCG [PBXIP1]	5.59 ± 0.11	5.33 ± 0.35		

Sequence	protein stability index [1]	protein stability index [2]	protein stability index (treatment: DMSO, c terminus: native)	protein stability index (treatment: MLN4924 1 uM, 8 h, c terminus: native)
FSQLEDKFPGQSSFLWQRGRKFLQ [TOR1AIP2]	2.69 ± 0.22	2.75 ± 0.34		
FDIQKIMQEKNPVHVIGVEEPSVG [ZNF8]	4.07 ± 0.39	4 ± 0.4		
PDVTQQLLQKYNMQFLIRSHECKP [PPEF2]	2.8 ± 0.21	2.71 ± 0.25		
CNDLFKVNPFQLQQFRADPSTASL [TIAF1]	2.71 ± 0.063	2.78 ± 0.18		
LMSSAVPMTPEDPSFWDCFCFTEE [AASDHPPT]	3.98 ± 0.25	3.86 ± 0.23		
YQTEQSLRQLVESDINSLRRILDE [KRT33B]	3.44 ± 0.16	3.61 ± 0.3		
QGRNSLWLSDWVTSYKVMVSNDSH [CPXM2]	1.92 ± 0.25	2.47 ± 0.56		
VHYMIHEPEPHILLFRRPLPKKPK [CKS1B]	2.39 ± 0.23	2.57 ± 0.35		
PSDDLTLLESSSSYKNLTLKFHKL [MCOLN1]	3.24 ± 0.21	3.31 ± 0.24		
PELLSTHPFFDTAEPDMDDPAYIA [INTS4]	5.12 ± 0.22	5.16 ± 0.12		
MQHSFPEPGRLYLDLILAILALEL [TMEM192]	2.62 ± 0.41	2.45 ± 0.36		
KSWHDMQTTTAYKKTHETLSHAGQ [TPD52L1]	4.01 ± 0.15	3.96 ± 0.18		
EIDTQGRHLAHSMLQRAIAYQHSG [C10orf62]	2.91 ± 0.24	3.15 ± 0.28		
NLLALGTDRKLDDGDDKVFRRAPS [PPFIA4]	4.51 ± 0.25	4.5 ± 0.24		
RAVLGANDPEKNFLTTAIRPHGIF [NSDHL]	2.73 ± 0.47	3.33 ± 0.039		
RVGQWVRMENVTVLGEDVIVNDEL [GMPPB]	4.01 ± 0.066	4.07 ± 0.24		
LEEDLKEVLRSEAGIELIIEDDIR [MYBL2]	4.66 ± 0.35	4.68 ± 0.39		
LPQEDPSTSQGCAQPQGAPCCSSS [FEM1A]	5.48 ± 0.12	5.37 ± 0.19		
SRHLNSQVKKTTTRWCHIVRDSDS [PHTF1]	2.33 ± 0.54	3.15 ± 0.66		
MPPKKQAQAGGSKKAEQKKKEKII [ZC3H15]	4.63 ± 0.18	5.1 ± 0.39		

Reference: the supplement of paper PMC10567573
